Assay results taken from patent CN117603358A (INST MICROBIOLOGY CAS; 3SBIO GROUP; SHANXI ADVANCED …, dated 2024).

Columns and labels:
Assay in all cases: cell-based or functional assay
[1] = molecular target: S蛋白, SARS-CoV-2 EG.5突变株 (SARS-CoV-2 EG.5)
[2] = molecular target: T1, S蛋白, SARS-CoV-2 XBB.1.5 (SARS-CoV-2 XBB.1.5)
[3] = molecular target: S蛋白, SARS-CoV-2 BF.7 (SARS-CoV-2 BF.7)
[4] = molecular target: S蛋白, SARS-CoV-2 XBB.1.16 (SARS-CoV-2 XBB.1.16)
[5] = molecular target: S蛋白, SARS-CoV-2 BQ.1.1 (SARS-CoV-2 BQ.1.1)
[6] = molecular target: S蛋白, SARS-CoV-2 BQ.1 (SARS-CoV-2 BQ.1)
[7] = molecular target: S蛋白, SARS-CoV-2 BA.3 (SARS-CoV-2 BA.3)
[8] = molecular target: S蛋白, SARS-CoV-2 XBB (SARS-CoV-2 XBB)
[9] = molecular target: T2, S蛋白, SARS-CoV-2 BA.2.75 (SARS-CoV-2 BA.2.75)
[10] = molecular target: S蛋白, SARS-CoV-2 BA.4/5 (SARS-CoV-2 BA.4/5)
[11] = molecular target: S蛋白, SARS-CoV-2 BA.2 (SARS-CoV-2 BA.2)
[12] = molecular target: S蛋白, SARS-CoV-2 BA.1.1 (SARS-CoV-2 BA.1.1)
[13] = molecular target: S蛋白, SARS-CoV-2 BA.1 (SARS-CoV-2 BA.1)
[14] = molecular target: T1, S蛋白, SARS-CoV-2 XBB.1.5; remark: listed apart in the source
[15] = molecular target: S蛋白, SARS-CoV-2 BF.7 (SARS-CoV-2 BF.7); remark: listed apart in the source
[16] = molecular target: S蛋白, SARS-CoV-2 BQ.1.1 (SARS-CoV-2 BQ.1.1); remark: listed apart in the source
[17] = molecular target: S蛋白, SARS-CoV-2 BQ.1 (SARS-CoV-2 BQ.1); remark: listed apart in the source
[18] = molecular target: S蛋白, SARS-CoV-2 XBB (SARS-CoV-2 XBB); remark: listed apart in the source
[19] = molecular target: S蛋白, SARS-CoV-2 Delta (SARS-CoV-2 Delta)
[20] = molecular target: T2, S蛋白, SARS-CoV-2 BA.2.75; remark: listed apart in the source
[21] = molecular target: S蛋白, SARS-CoV-2 BA.4/5 (SARS-CoV-2 BA.4/5); remark: listed apart in the source
[22] = molecular target: S蛋白, SARS-CoV-2 BA.1 (SARS-CoV-2 BA.1); remark: listed apart in the source

Row | Binder | 假病毒中和效果 IC50 [1] [µg/mL] | 假病毒中和效果 IC50 [2] [µg/mL] | 假病毒中和效果 IC50 [3] [µg/mL] | 假病毒中和效果 IC50 [4] [µg/mL] | 假病毒中和效果 IC50 [5] [µg/mL] | 假病毒中和效果 IC50 [6] [µg/mL] | 假病毒中和效果 IC50 [7] [µg/mL] | 假病毒中和效果 IC50 [8] [µg/mL] | 假病毒中和效果 IC50 [9] [µg/mL] | 假病毒中和效果 IC50 [10] [µg/mL] | 假病毒中和效果 IC50 [11] [µg/mL] | 假病毒中和效果 IC50 [12] [µg/mL] | 假病毒中和效果 IC50 [13] [µg/mL] | 假病毒中和活性 IC50 [14] [ng/mL] | 假病毒中和活性 IC50 [15] [ng/mL] | 假病毒中和活性 IC50 [16] [ng/mL] | 假病毒中和活性 IC50 [17] [ng/mL] | 假病毒中和活性 IC50 [18] [ng/mL] | 假病毒中和活性 IC50 [19] [ng/mL] | 假病毒中和活性 IC50 [20] [ng/mL] | further results
1 | L4.65单抗 (antibody, V domains shown) VH: QITLKESGPTLVKPTQTLTLTCTFSGFSLSTSGVGVAWIRQPPGKALEWLALIYWDNDKRSSPSLNNRLTITKDTSKNQVVLTMTNMDPEDTATYYCAHFFSHYDSSNYYYGSWFDPWGQGTLVTVSS VL: EIVLTQSPGTLSLSPGERATLSCRASQSFDSRYLGWYQQKSGQAPRLLIYGASSRATGIPDRFSGSGSGTDFTLTISRLEPEDFAVYYCQQFGDSPFTFGQGTKLEIKR | 0.0521 | 0.0137 | 0.000446 | 0.0103 | 4.58 | 2.09 | 0.00044 | 0.00335 | 0.00194 | 0.000377 | 0.00039 | 0.00028 | 0.000394 | 54.1 | 2.12 | > 2000 | > 2000 | 21.4 | 2.52 | 11.2 | 假病毒中和活性 IC50 [21]: 1.38 ng/mL; 假病毒中和活性 IC50 [22]: 1.35 ng/mL
2 | CoV56单抗 (antibody, V domains shown) VH: EVQLVESGGGVVQPGGSLRLSCAVSGFTFDDYAMHWVRQAPGKGLDWVSLISGDGSYTYYADSVKGRFTISRDSSKNSLYLQMNSLRTEDTALYYCAKAQTPTLWWLQDAFDIWGQGTMVTVSS VL: not shown | 13.6 | 11.8 | 11.7 | 21.7 | 15.9 | 19.6 | 18.5 | 15.9 | 58.8 | 7.53 | 8.32 | 10.8 | 14.8 | > 2000 | > 2000 | > 2000 | > 2000 | > 2000 | > 2000 | > 2000 | 假病毒中和活性 IC50 [21]: > 2000 ng/mL; 假病毒中和活性 IC50 [22]: > 2000 ng/mL
